Measurements from article PMC8809517, “Cofactor-independent RNA editing by a synthetic S-type PPR protein”.

T1: GFP-9S library array, motif 4 ND N98R;D124P (synthetic construct, N98R;D124P)
T1 chain: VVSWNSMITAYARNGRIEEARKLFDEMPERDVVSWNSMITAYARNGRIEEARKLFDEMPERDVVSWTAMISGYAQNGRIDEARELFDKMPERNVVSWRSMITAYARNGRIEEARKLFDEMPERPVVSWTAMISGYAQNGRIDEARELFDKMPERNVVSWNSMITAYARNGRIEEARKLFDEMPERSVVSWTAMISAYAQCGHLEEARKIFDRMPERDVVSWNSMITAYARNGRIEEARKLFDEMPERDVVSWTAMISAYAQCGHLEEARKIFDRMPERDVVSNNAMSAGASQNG

T2: GFP-9S library array, motif 4 ND N98Y;D124C (synthetic construct, N98Y;D124C)
T2 chain: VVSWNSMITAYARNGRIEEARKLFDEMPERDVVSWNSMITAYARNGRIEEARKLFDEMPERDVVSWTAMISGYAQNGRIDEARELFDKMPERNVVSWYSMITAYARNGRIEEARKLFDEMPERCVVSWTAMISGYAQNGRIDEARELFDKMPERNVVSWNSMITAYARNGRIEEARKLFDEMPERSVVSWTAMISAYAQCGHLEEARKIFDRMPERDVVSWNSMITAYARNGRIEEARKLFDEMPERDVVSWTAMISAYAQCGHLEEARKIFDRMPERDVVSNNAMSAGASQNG

T3: GFP-9S library array, motif 4 ND N98C;D124T (synthetic construct, N98C;D124T)
T3 chain: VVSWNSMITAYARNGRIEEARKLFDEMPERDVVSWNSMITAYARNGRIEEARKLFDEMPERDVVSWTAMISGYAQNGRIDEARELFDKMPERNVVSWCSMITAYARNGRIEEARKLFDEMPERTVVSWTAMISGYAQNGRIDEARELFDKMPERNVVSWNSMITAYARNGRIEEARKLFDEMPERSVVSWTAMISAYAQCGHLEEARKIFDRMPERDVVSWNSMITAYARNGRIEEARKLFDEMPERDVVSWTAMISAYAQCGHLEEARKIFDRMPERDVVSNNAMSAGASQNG

T4: GFP-9S library array, motif 4 ND N98G;D124F (synthetic construct, N98G;D124F)
T4 chain: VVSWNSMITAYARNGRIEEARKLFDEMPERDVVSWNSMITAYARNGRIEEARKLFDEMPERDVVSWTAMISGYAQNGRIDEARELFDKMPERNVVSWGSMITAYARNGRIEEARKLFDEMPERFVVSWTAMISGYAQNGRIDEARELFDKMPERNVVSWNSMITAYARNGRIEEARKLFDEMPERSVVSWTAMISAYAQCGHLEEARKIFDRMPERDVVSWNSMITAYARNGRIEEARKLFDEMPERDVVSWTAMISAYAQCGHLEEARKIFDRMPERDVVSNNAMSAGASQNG

T5: GFP-9S library array, motif 4 ND N98C;D124R (synthetic construct, N98C;D124R)
T5 chain: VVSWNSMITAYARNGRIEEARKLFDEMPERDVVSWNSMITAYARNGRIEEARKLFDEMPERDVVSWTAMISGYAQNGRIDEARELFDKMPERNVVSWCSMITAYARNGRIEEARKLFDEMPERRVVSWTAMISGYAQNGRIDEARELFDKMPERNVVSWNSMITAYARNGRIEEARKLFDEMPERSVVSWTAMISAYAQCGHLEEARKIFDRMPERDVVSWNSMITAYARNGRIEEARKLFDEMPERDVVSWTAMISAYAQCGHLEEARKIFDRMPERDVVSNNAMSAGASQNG


Legend:
Experiment in all cases: high-throughput RNA pulldown from lysate on Ni-NTA beads; HRP: 50 mM Tris pH 8, 150 mM NaCl, 1 mM beta-mercaptoethanol, 50 ug/ml BSA, 3 ug/ml yeast RNA, 0.5% heparin; ITC and FP: Tris pH 8, 200 mM KCl, 5% glycerol; MST: 50 mM Tris pH 8, 200 mM NaCl, 1 mM DTT, BSA, heparin, 0.05% Tween 20
Conditions in all cases: tags: N-terminal His-eGFP
[1] = target: T1, GFP-9S library array, motif 4 ND …
[2] = target: T2, GFP-9S library array, motif 4 ND …
[3] = target: T3, GFP-9S library array, motif 4 ND …
[4] = target: T4, GFP-9S library array, motif 4 ND …
[5] = target: T5, GFP-9S library array, motif 4 ND …

Binder	Kd ([1]; label: 5' IRDye 800CW) [nM]	Kd ([2]; label: 5' IRDye 800CW) [nM]	Kd ([3]; label: 5' IRDye 800CW) [nM]	Kd ([4]; label: 5' IRDye 800CW) [nM]	Kd ([5]; label: 5' IRDye 800CW) [nM]	Kd ([1]; label: 5' Cy5) [nM]	Kd ([2]; label: 5' Cy5) [nM]	Kd ([3]; label: 5' Cy5) [nM]	Kd ([4]; label: 5' Cy5) [nM]	Kd ([5]; label: 5' Cy5) [nM]
AUUAAACGUGA (ssRNA) [IR-rpoA-A]	335	211	150	218	44.5	–	–	–	–	–
AUUACACGUGA (ssRNA) [Cy5-rpoA]	–	–	–	–	–	143	126	245	69.1	160
AUUAUACGUGA (ssRNA) [IR-rpoA-U]	163	271	155	119	96.8	–	–	–	–	–
AUUAGACGUGA (ssRNA) [Cy5-rpoA-G]	–	–	–	–	–	151	115	85.3	95.6	54.9
